Test results as given in patent US20150087812A1 (Janssen / Centocor, published 2015).

Assays:
[1] = target: T1, recombinant human ATX beta isoform with N-terminal purification tag (human, UniProt Q13822 49-863); assay: Fab-His ELISA
Experimental: (§1) Fabs were captured on black MaxiSorp plates (Nunc, Cat. No. 437111) coated with 1 μg/ml sheep anti-human Fd (CH1) antibody (The Binding Site, Cat. No. PC075). Plates were washed and biotinylated human ATX was added to the captured Fabs at 5 nM. Incubation was carried out for 1 hour at room temperature with gentle shaking. Plates were washed, SA-HRP (Invitrogen, Cat. No. 43-4323) was added and chemiluminescent detection carried out.
(§2) Clones with binding above background were sequenced and unique clones identified. […] These clones were identified with binding signal to human ATX at least 6-fold above the background. Table 3 lists the identifier for VH and VL (Peptide ID) and the combination of both (Fab ID) sorted by the Fab ELISA binding data.

[2] = target: T1, recombinant human ATX beta isoform with …; assay: ELISA, Fab-His captured by anti-Fd, 5 nM biotinylated human ATX beta
Experimental: as §1, §2

fold above background [1] [fold] | Fab Binding [2] | Binder
≥ 6 | 5.8e+06 relative chemiluminescence units | Fab F97 (VH H90, VL IFWL124) (Fab, V domains shown, Soluble Fab-His; converted to mAb B18) VH: QVQLVQSGAEVKKPGSSVKVSCKASGGTFSSYAISWVRQAPGQGLEWMGGIIPIFGTANYAQKFQGRVTITADESTSTAYMELSSLRSEDTAVYYCARDASTYGDLDYWGQGTLVTVSS VL: DIQMTQSPSSLSASVGDRVTITCRASQSIDGWLNWYQQKPGKAPKLLIYAASSLQSGVPSRFSGSGSGTDFTLTISSLQPEDFATYYCQQSYSTPLTFGQGTKVEIK
≥ 6 | 4.2e+06 relative chemiluminescence units | Fab F86 (VH H80, VL L80) (Fab, V domains shown, Soluble Fab-His; converted to mAb B7) VH: QVQLVQSGAEVKKPGSSVKVSCKASGGTFSSYAISWVRQAPGQGLEWMGGIIPIFGTANYAQKFQGRVTITADESTSTAYMELSSLRSEDTAVYYCARPIGTGYYGFFDYWGQGTLVTVSS VL: DIQMTQSPSSLSASVGDRVTITCRASQSIAKWLNWYQQKPGKAPKLLIYFASSLQSGVPSRFSGSGSGTDFTLTISSLQPEDFATYYCQQSYSTPLTFGQGTKVEIK
≥ 6 | 2.4e+06 relative chemiluminescence units | Fab F53 (VH H2, VL L30) (Fab, V domains shown, Soluble Fab-His; converted to mAb B4; also called P53) VH: QVQLVQSGAEVKKPGSSVKVSCKASGGTFSSYAISWVRQAPGQGLEWMGGIIPIFGTANYAQKFQGRVTITADESTSTAYMELSSLRSEDTAVYYCARDDLPLGRLDYWGQGTLVTVSS VL: EIVLTQSPATLSLSPGERATLSCRASQSVNKHLAWYQQKPGQAPRLLIYKASNRATGIPARFSGSGSGTDFTLTISSLEPEDFAVYYCQQGIRAPYTFGQGTKVEIK
≥ 6 | 1e+06 relative chemiluminescence units | Fab F9 (VH H2, VL L8) (Fab, V domains shown, Soluble Fab-His) VH: QVQLVQSGAEVKKPGSSVKVSCKASGGTFSSYAISWVRQAPGQGLEWMGGIIPIFGTANYAQKFQGRVTITADESTSTAYMELSSLRSEDTAVYYCARDDLPLGRLDYWGQGTLVTVSS VL: EIVLTQSPATLSLSPGERATLSCRASQSVAKDLAWYQQKPGQAPRLLIYTASNRATGIPARFSGSGSGTDFTLTISSLEPEDFAVYYCQQGINWPFTFGQGTKVEIK
≥ 6 | 2.1e+06 relative chemiluminescence units | Fab F35 (VH H25, VL L29) (Fab, V domains shown, Soluble Fab-His) VH: QVQLVQSGAEVKKPGSSVKVSCKASGGTFSSYAISWVRQAPGQGLEWMGGIIPIFGTANYAQKFQGRVTITADESTSTAYMELSSLRSEDTAVYYCARDDLALGRLDYWGQGTLVTVSS VL: EIVLTQSPATLSLSPGERATLSCRASQSVAKFLAWYQQKPGQAPRLLIYKASNRATGIPARFSGSGSGTDFTLTISSLEPEDFAVYYCQQGHGWPRTFGQGTKVEIK
≥ 6 | 1.8e+06 relative chemiluminescence units | Fab F7 (VH H2, VL L6) (Fab, V domains shown, Soluble Fab-His) VH: QVQLVQSGAEVKKPGSSVKVSCKASGGTFSSYAISWVRQAPGQGLEWMGGIIPIFGTANYAQKFQGRVTITADESTSTAYMELSSLRSEDTAVYYCARDDLPLGRLDYWGQGTLVTVSS VL: EIVLTQSPATLSLSPGERATLSCRASQSVNSWLAWYQQKPGQAPRLLIYYASNRATGIPARFSGSGSGTDFTLTISSLEPEDFAVYYCQQGHRWPFTFGQGTKVEIK
≥ 6 | 1.5e+06 relative chemiluminescence units | Fab F2 (VH H2, VL L1) (Fab, V domains shown, Soluble Fab-His) VH: QVQLVQSGAEVKKPGSSVKVSCKASGGTFSSYAISWVRQAPGQGLEWMGGIIPIFGTANYAQKFQGRVTITADESTSTAYMELSSLRSEDTAVYYCARDDLPLGRLDYWGQGTLVTVSS VL: EIVLTQSPATLSLSPGERATLSCRASQSVRNFLAWYQQKPGQAPRLLIYDASNRATGIPARFSGSGSGTDFTLTISSLEPEDFAVYYCQQGYRAPITFGQGTKVEIK
≥ 6 | 4.9e+06 relative chemiluminescence units | Fab F143 (VH H148, VL H2RL12) (Fab, V domains shown, Soluble Fab-His; converted to mAb B13) VH: QVQLVQSGAEVKKPGSSVKVSCKASGGTFSSYAISWVRQAPGQGLEWMGGIIPIFGTANYAQKFQGRVTITADESTSTAYMELSSLRSEDTAVYYCARDFSVYGDFDYWGQGTLVTVSS VL: DIQMTQSPSSLSASVGDRVTITCRASQSIAKWLNWYQQKPGKAPKLLIYAASSLQSGVPSRFSGSGSGTDFTLTISSLQPEDFATYYCQQSYSTPLTFGQGTKVEIK
≥ 6 | 1.8e+06 relative chemiluminescence units | Fab F11 (VH H2, VL L9) (Fab, V domains shown, Soluble Fab-His) VH: QVQLVQSGAEVKKPGSSVKVSCKASGGTFSSYAISWVRQAPGQGLEWMGGIIPIFGTANYAQKFQGRVTITADESTSTAYMELSSLRSEDTAVYYCARDDLPLGRLDYWGQGTLVTVSS VL: EIVLTQSPATLSLSPGERATLSCRASQSVADFLAWYQQKPGQAPRLLIYTASNRATGIPARFSGSGSGTDFTLTISSLEPEDFAVYYCQQGSTAPYTFGQGTKVEIK
≥ 6 | 2e+06 relative chemiluminescence units | Fab F32 (VH H7, VL PH9L4) (Fab, V domains shown, Soluble Fab-His) VH: QVQLVQSGAEVKKPGSSVKVSCKASGGTFSSYAISWVRQAPGQGLEWMGGIIPIFGTANYAQKFQGRVTITADESTSTAYMELSSLRSEDTAVYYCARDDVALGRLDYWGQGTLVTVSS VL: not shown
≥ 6 | 5.9e+06 relative chemiluminescence units | Fab F96 (VH H89, VL IFWL124) (Fab, V domains shown, Soluble Fab-His; converted to mAb B8) VH: QVQLVQSGAEVKKPGSSVKVSCKASGGTFSSYAISWVRQAPGQGLEWMGGIIPIFGTANYAQKFQGRVTITADESTSTAYMELSSLRSEDTAVYYCARDSSAYGDFDYWGQGTLVTVSS VL: DIQMTQSPSSLSASVGDRVTITCRASQSIDGWLNWYQQKPGKAPKLLIYAASSLQSGVPSRFSGSGSGTDFTLTISSLQPEDFATYYCQQSYSTPLTFGQGTKVEIK
≥ 6 | 5.1e+06 relative chemiluminescence units | Fab F104 (VH H96, VL IFWL124) (Fab, V domains shown, Soluble Fab-His; converted to mAb B14) VH: QVQLVQSGAEVKKPGSSVKVSCKASGGTFSSYAISWVRQAPGQGLEWMGGIIPIFGNTNYAQKFQGRVTITADESTSTAYMELSSLRSEDTAVYYCARDISGYGDLDYWGQGTLVTVSS VL: DIQMTQSPSSLSASVGDRVTITCRASQSIDGWLNWYQQKPGKAPKLLIYAASSLQSGVPSRFSGSGSGTDFTLTISSLQPEDFATYYCQQSYSTPLTFGQGTKVEIK
≥ 6 | 1.4e+06 relative chemiluminescence units | Fab F3 (VH H2, VL L2) (Fab, V domains shown, Soluble Fab-His) VH: QVQLVQSGAEVKKPGSSVKVSCKASGGTFSSYAISWVRQAPGQGLEWMGGIIPIFGTANYAQKFQGRVTITADESTSTAYMELSSLRSEDTAVYYCARDDLPLGRLDYWGQGTLVTVSS VL: EIVLTQSPATLSLSPGERATLSCRASQSVNNFLAWYQQKPGQAPRLLIYGASNRATGIPARFSGSGSGTDFTLTISSLEPEDFAVYYCQQFKGAPLTFGQGTKVEIK
≥ 6 | 1.1e+06 relative chemiluminescence units | Fab F13 (VH H2, VL L11) (Fab, V domains shown, Soluble Fab-His) VH: QVQLVQSGAEVKKPGSSVKVSCKASGGTFSSYAISWVRQAPGQGLEWMGGIIPIFGTANYAQKFQGRVTITADESTSTAYMELSSLRSEDTAVYYCARDDLPLGRLDYWGQGTLVTVSS VL: EIVLTQSPATLSLSPGERATLSCRASQSVADWLAWYQQKPGQAPRLLIYNASNRATGIPARFSGSGSGTDFTLTISSLEPEDFAVYYCQQYIRWPITFGQGTKVEIK
≥ 6 | 2.3e+06 relative chemiluminescence units | Fab F34 (VH H2, VL L28) (Fab, V domains shown, Soluble Fab-His; converted to mAb B5) VH: QVQLVQSGAEVKKPGSSVKVSCKASGGTFSSYAISWVRQAPGQGLEWMGGIIPIFGTANYAQKFQGRVTITADESTSTAYMELSSLRSEDTAVYYCARDDLPLGRLDYWGQGTLVTVSS VL: EIVLTQSPATLSLSPGERATLSCRASQSVAKFLAWYQQKPGQAPRLLIYKASNRATGIPARFSGSGSGTDFTLTISSLEPEDFAVYYCQQFNSAPITFGQGTKVEIK
≥ 6 | 1.7e+07 relative chemiluminescence units | Fab F73 (VH H66, VL L67) (Fab, V domains shown, Soluble Fab-His; converted to mAb B6) VH: QVQLVQSGAEVKKPGSSVKVSCKASGGTFSSYAISWVRQAPGQGLEWMGGIIPIFGTANYAQKFQGRVTITADESTSTAYMELSSLRSEDTAVYYCARDLYIYGDLDYWGQGTLVTVSS VL: DIQMTQSPSSLSASVGDRVTITCRASQSIGGWLNWYQQKPGKAPKLLIYTASSLQSGVPSRFSGSGSGTDFTLTISSLQPEDFATYYCQQSYTYPITFGQGTKVEIK
≥ 6 | 1.6e+06 relative chemiluminescence units | Fab F62 (VH H54, VL GCGL18) (Fab, V domains shown, Soluble Fab-His) VH: QVQLVQSGAEVKKPGSSVKVSCKASGGTFSSYAISWVRQAPGQGLEWMGGIIPIFGTANYAQKFQGRVTITADESTSTAYMELSSLRSEDTAVYYCAREDVALGRLDYWGQGTLVTVSS VL: not shown
≥ 6 | 1.6e+06 relative chemiluminescence units | Fab F8 (VH H2, VL L7) (Fab, V domains shown, Soluble Fab-His) VH: QVQLVQSGAEVKKPGSSVKVSCKASGGTFSSYAISWVRQAPGQGLEWMGGIIPIFGTANYAQKFQGRVTITADESTSTAYMELSSLRSEDTAVYYCARDDLPLGRLDYWGQGTLVTVSS VL: EIVLTQSPATLSLSPGERATLSCRASQSVRDWLAWYQQKPGQAPRLLIYGASNRATGIPARFSGSGSGTDFTLTISSLEPEDFAVYYCQQGDGWPWTFGQGTKVEIK
≥ 6 | 2.4e+07 relative chemiluminescence units | Fab F17 (VH H11, VL L14) (Fab, V domains shown, Soluble Fab-His (E. coli supernatant); converted to mAb B3) VH: EVQLVQSGAEVKKPGESLKISCKGSGYSFTSYWIGWVRQMPGKGLEWMGIIYPGDSDTRYSPSFQGQVTISADKSISTAYLQWSSLKASDTAMYYCARPYGTFDYWGQGTLVTVSS VL: EIVLTQSPATLSLSPGERATLSCRASQSVADSLAWYQQKPGQAPRLLIYKASNRATGIPARFSGSGSGTDFTLTISSLEPEDFAVYYCQQSNGWPRTFGQGTKVEIK
≥ 6 | 1.4e+06 relative chemiluminescence units | Fab F121 (VH H115, VL L106) (Fab, V domains shown, Soluble Fab-His) VH: QVQLVQSGAEVKKPGSSVKVSCKASGGTFSSYAISWVRQAPGQGLEWMGGIIPIFGTANYAQKFQGRVTITADESTSTAYMELSSLRSEDTAVYYCARGDANALYDYFDYWGQGTLVTVSS VL: EIVLTQSPATLSLSPGERATLSCRASQSVSNWLAWYQQKPGQAPRLLIYTASNRATGIPARFSGSGSGTDFTLTISSLEPEDFAVYYCQQRYTAPWTFGQGTKVEIK
